B1: cAMP-regulated phosphoprotein 19 (ARPP-19), wild type (natural protein)
chain: MSAEVPEAASAEEQKEMEDKVTSPEKAEEAKLKARYPHLGQKPGGSDFLRKRLQKGQKYFDSGDYNMAKAKMKNKQLPTAAPDKTEVTGDHIPTPQDLPQRKPSLVASKLAG
modifications: 15N-labelled in the NMR titration
B2: ARPP-19 S104E phosphomimicking mutant (natural protein)
chain: B1 chain with S104E
B3: ARPP-19 S62E phosphomimicking mutant (natural protein)
chain: B1 chain with S62E
B4: PP2A regulatory subunit B56δ (natural protein)
chain: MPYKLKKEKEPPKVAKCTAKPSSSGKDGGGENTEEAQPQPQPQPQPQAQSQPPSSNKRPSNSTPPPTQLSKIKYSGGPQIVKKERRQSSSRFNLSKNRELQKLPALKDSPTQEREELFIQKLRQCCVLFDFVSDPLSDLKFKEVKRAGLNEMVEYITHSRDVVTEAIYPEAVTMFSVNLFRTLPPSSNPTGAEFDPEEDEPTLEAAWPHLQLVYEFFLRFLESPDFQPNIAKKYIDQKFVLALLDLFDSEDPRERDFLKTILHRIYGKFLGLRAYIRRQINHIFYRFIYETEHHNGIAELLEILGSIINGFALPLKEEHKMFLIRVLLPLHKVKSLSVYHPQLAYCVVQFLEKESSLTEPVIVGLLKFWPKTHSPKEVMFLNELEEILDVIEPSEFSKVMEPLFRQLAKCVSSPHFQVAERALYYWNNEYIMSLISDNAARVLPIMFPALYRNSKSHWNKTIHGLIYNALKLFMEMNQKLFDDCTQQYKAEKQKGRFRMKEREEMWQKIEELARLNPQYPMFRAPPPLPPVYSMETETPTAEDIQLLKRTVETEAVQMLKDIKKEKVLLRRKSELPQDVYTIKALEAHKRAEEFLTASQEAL
modifications: NT-647-NHS fluorescent dye (Monolith NT Protein labeling kit red NHS)
B5: PP2A regulatory subunit B56ε (natural protein)
chain: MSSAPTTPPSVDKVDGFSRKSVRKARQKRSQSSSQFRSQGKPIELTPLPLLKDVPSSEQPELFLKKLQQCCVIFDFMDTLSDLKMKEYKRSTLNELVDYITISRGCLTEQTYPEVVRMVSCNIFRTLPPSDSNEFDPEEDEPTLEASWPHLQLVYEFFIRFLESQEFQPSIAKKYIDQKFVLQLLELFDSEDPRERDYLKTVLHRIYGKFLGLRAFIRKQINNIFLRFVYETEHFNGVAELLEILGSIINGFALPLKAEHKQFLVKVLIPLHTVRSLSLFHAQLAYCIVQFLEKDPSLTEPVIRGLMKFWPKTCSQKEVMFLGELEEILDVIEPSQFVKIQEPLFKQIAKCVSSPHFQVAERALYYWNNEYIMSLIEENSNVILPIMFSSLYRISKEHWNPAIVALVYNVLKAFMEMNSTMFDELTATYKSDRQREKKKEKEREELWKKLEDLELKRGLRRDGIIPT
modifications: NT-647-NHS fluorescent dye (Monolith NT Protein labeling kit red NHS)

Residue numbers refer to the chain shown, from its start. In names and notes the source's numbering stands.

Common to all, as to assay: MST; NT-647-NHS-labelled PP2A subunit at 20 nM as target, 12-point twofold dilution series of unlabelled ARPP as ligand; SEC buffer with 0.05% Tween-20; triplicate; single-site binding model
Conditions in all cases: both partners purified

For assay [1], the target named is T1, PP2A regulatory subunit B56γ (NT-647-NHS fluorescent dye (Monolith NT Protein labeling kit red NHS)).
T1 construct: one residue left at the N-terminus after TEV cleavage; PP2A regulatory subunit B56γ, UniProt Q13362-1; source: E. coli BL21 Gold, purified (glutathione agarose, TEV cleavage, SEC); not shown: GST, N-terminal, cleaved

Assay [2] has as its target B4.
The target of assay [3] is PP2A regulatory subunit B56α (NT-647-NHS fluorescent dye (Monolith NT Protein labeling kit red NHS)).
The target of assay [4] is B5.
The target of assay [5] is T2, PP2A scaffolding subunit PR65α, full length (UniProt P30153 1-589, NT-647-NHS fluorescent dye (Monolith NT Protein labeling kit red NHS) in the MST; unlabelled in the NMR titration).
T2 construct: PP2A scaffolding subunit PR65α, full length; pGTvL1-SGC vector, expressed and purified as the ARPP proteins; also called PP2A A-subunit; A-subunit; source: E. coli BL21 Gold, purified (glutathione agarose, TEV cleavage, SEC); not shown: GST, N-terminal, cleaved

For assay [6], the target named is T3, ARPP-16 (splice variant of ARPP-19), wild type (human, 15N-labelled in the NMR titration).
T3 construct: one residue left at the N-terminus after TEV cleavage; human ARPP-16, splice variant of ARPP-19 lacking its first 16 residues, UniProt P56211-2; numbers count on: ARPP-16 (P56211-2); pGTvL1-SGC vector; also called ARPP-16 WT; source: E. coli BL21 Gold, purified (glutathione agarose, TEV cleavage, SEC); not shown: GST, N-terminal, cleaved

Assay [7] deals with T4, ARPP-16 S88E phosphomimicking mutant (human).
T4 construct: one residue left at the N-terminus after TEV cleavage; human ARPP-16, UniProt P56211-2, with S88E; numbers count on: ARPP-16 (P56211-2); source: E. coli BL21 Gold, purified (glutathione agarose, TEV cleavage, SEC); not shown: GST, N-terminal, cleaved

Assay [8] deals with T5, ARPP-16 S46E phosphomimicking mutant (human).
T5 construct: one residue left at the N-terminus after TEV cleavage; human ARPP-16, UniProt P56211-2, with S46E; numbers count on: ARPP-16 (P56211-2); source: E. coli BL21 Gold, purified (glutathione agarose, TEV cleavage, SEC); not shown: GST, N-terminal, cleaved

Broadly, the Kd is a measure of binding affinity in units of concentration.

T2 sequence (P30153 whole entry): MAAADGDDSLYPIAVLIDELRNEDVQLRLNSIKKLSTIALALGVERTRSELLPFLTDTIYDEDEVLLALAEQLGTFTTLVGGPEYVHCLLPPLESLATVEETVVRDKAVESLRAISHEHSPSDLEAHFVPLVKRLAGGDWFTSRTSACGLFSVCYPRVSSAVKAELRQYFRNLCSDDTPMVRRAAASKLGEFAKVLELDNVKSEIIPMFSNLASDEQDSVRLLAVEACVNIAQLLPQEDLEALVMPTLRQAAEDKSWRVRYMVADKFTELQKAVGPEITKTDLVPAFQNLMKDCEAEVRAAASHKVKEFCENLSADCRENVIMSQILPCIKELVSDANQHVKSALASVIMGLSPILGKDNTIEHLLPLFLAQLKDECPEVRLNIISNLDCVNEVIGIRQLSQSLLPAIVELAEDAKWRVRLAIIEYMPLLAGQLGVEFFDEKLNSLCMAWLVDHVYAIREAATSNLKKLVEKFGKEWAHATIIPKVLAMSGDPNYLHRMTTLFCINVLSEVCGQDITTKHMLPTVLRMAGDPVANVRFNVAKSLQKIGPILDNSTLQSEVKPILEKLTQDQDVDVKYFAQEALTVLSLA
T1 sequence (Q13362 whole entry): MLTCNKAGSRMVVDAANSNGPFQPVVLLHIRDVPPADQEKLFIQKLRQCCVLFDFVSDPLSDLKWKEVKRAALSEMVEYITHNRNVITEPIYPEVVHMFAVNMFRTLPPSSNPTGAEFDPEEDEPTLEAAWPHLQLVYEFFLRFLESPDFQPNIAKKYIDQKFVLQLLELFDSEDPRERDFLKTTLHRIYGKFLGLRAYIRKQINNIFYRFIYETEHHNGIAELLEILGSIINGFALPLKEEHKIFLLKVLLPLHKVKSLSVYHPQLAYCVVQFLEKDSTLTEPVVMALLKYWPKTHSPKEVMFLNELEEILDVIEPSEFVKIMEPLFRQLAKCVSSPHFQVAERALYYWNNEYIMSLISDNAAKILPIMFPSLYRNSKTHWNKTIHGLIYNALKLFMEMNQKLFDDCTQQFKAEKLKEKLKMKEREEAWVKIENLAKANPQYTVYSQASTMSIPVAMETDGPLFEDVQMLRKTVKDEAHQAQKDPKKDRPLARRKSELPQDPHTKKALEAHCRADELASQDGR
T4 sequence (Q14738 whole entry S88E): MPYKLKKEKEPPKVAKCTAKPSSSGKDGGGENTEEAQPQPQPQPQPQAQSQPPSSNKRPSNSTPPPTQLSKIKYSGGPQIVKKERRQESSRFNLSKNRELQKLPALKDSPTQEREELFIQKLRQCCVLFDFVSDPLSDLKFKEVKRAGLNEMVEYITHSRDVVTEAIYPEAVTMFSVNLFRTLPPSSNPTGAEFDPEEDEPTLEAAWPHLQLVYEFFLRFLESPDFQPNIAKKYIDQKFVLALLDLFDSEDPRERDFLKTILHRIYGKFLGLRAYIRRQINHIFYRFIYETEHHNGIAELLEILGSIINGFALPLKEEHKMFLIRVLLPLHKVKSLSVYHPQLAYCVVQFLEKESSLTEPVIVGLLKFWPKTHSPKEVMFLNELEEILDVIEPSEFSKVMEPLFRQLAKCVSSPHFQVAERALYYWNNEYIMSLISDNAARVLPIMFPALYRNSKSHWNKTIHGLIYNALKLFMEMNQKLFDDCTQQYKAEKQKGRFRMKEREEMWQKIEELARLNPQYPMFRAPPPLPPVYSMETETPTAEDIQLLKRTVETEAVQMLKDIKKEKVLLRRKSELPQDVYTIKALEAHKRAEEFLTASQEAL

On to B1, for which the Kd is over 1300 µM in assay [1]; 430 µM in assay [2]; 470 µM in assay [3]; over 800 µM in assay [4]; 7.9 µM in assay [5].
Regarding B2, the Kd in assay [1] amounted to 320 µM; in assay [2], 195 µM; in assay [3], 85 µM; in assay [5], 6.1 µM.
Take B3: the Kd in assay [1] is 195 µM; in assay [2] it was 95 µM; in assay [3], 110 µM; in assay [4], over 700 µM; in assay [5] it was 7.5 µM.
Turning to B4, the Kd in assay [6] is over 700 µM; in assay [7], 40.7 µM; in assay [8], 110 µM.
Regarding B5, the Kd in assay [6] is over 500 µM; in assay [8], 250 µM.

Source of the values: article PMC8032985, “The Interaction Mechanism of Intrinsically Disordered PP2A Inhibitor Proteins ARPP-16 and ARPP-19 With PP2A” (Frontiers in Molecular Biosciences, 2021).
